Assays:
[1] = biological target: the molecule itself; experiment: NMR structure; PACT D3 in 20 mM HEPES pH 7.5, 50 mM KCl, 2 mM DTT, 30 °C; inter-chain NOEs from a mixed-isotope sample (0.4 mM each protomer)
PKR K296R [2] = biological target: T1, PKR K296R (UniProt P19525 1-551, K296R); experiment: SEC-MALS; 3 PKR per dsRNA; EMSA: 20 mM HEPES pH 7.5, 150 mM NaCl, 2 mM DTT, RT 15 min, 0.2 ng/ul 32P-112 bp dsRNA, 0-4000 nM protein, Bis-Tris native PAGE; smFRET buffer not in material; conditions: protein: recombinant; tags: pET29b; Cy5-labeled in smFRET; blunt
PKR K296R [3] = biological target: T1, PKR K296R; experiment: SEC-MALS; 4 PKR per dsRNA; EMSA: 20 mM HEPES pH 7.5, 150 mM NaCl, 2 mM DTT, RT 15 min, 0.2 ng/ul 32P-112 bp dsRNA, 0-4000 nM protein, Bis-Tris native PAGE; smFRET buffer not in material; conditions: protein: recombinant; tags: pET29b; Cy5-labeled in smFRET; blunt

T1 sequence (P19525 whole entry K296R): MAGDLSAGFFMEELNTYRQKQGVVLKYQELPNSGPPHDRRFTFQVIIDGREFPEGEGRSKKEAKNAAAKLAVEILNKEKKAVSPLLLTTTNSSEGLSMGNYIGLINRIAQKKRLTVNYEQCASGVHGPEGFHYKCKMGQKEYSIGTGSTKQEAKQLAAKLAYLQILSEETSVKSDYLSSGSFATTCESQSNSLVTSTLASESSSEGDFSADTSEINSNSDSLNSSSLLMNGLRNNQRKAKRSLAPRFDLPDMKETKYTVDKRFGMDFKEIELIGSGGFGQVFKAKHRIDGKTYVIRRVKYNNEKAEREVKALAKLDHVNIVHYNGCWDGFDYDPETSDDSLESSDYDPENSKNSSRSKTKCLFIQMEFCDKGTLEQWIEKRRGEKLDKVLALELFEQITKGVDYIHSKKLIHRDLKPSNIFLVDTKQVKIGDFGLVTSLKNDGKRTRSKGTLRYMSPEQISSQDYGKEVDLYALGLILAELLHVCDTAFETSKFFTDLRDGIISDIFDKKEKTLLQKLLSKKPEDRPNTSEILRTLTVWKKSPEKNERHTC

B1: PACT DRBD3 (residues 235-313) (domain or fragment, UniProt O75569 235-313, looked up)
chain: SIPNTDYIQLLSEIAKEQGFNITYLDIDELSANGQYQCLAELSTSPITVCHGSGISCGNAQSDAAHNALQYLKIIAERK
modifications: isotope-labelled (15N, 13C, ~85% 2H; for the mixed sample 15N,2H-labelled and 13C-labelled protomers)
notes: PACT DRBD3, residues 235-313, in pET47b between BamHI and SalI; Homodimer in the NMR structure; also called PACT D3; source: E. coli BL21(DE3) in M9 minimal media, purified (Ni-NTA, SEC)
Q: How did the “stoichiometry N” value [1] turn out when B1 was run?
A: 2

B2: 42 bp dsRNA (dsRNA)
RNA 1: GGGAGAAUGUCGAAUGGGUAUUCCACAGACGAGAAUUCUCCC
RNA 2: GGGAGAAUUCUCGUCUGUGGAAUACCCAUUCGACAUUCUCCC
Q: Does B2 bind (PKR K296R [2])?
A: binds

B3: 62 bp dsRNA (dsRNA)
RNA 1: GGGAGAAUGUCGAAUGGGUAUUCCACAGACGAGAAUUUCCGCUAUCUCAUCUCGUGUCUCCC
RNA 2: GGGAGACACGAGAUGAGAUAGCGGAAAUUCUCGUCUGUGGAAUACCCAUUCGACAUUCUCCC
Q: Does B3 bind (PKR K296R [3])?
A: binds
